Assay: label from the status in PepcDB records

Sequence | protein production
MNIVSQLSPVTLSPELIARFTAIVGDKHALTDPLELEAYITEERNLYRGHSPLVLRPGSTEEVVAICKLANEARVALVPQGGNTGLVGGQTPHNGEVVISLKRMDKIREIDTSSNTITVEAGAILQRVQEKAAEVDRLFPLSLGAQGSCTIGGNLSTNAGGTAALAYGLARDMALGVEVVLADGRVMNLLSKLKKDNTGYDLRDLFIGAEGTLGIITAATLKLFPKPRAVETAFVGLQSPDDALKLLGIAQGEAAGNLTSFELIAETPLDFSVRHANNRDPLEARYPWYVLIELSSPRDDARAALESILERGFEDGIVVDAAIANSVQQQQAFWKLREEISPAQKPEGGSIKHDISVPVAAVPQFIEQANAAVVALIPGARPVPFGHLGDGNIHYNVSQPVGADKAEFLARWHDVSQVVFEVVLRLGGSISAEHGIGVMKRDELAEVKDKTAIELMRSIKALLDPHGIMNPGKVV | not failed
MNKAITVIVWLLVSLCVLAIITMPVSLQTHLVATAISLILLATIKSFNGQGAWRLVALGFGTAIVLRYVYWRTTSTLPPVNQLENFIPGFLLYLAEMYSVVMLGLSLVIVSMPLPSRKTRPGSPDYRPTVDVFVPSYNEDAELLANTLAAAKNMDYPADRFTVWLLDDGGSVQKRNAANIVEAQAAQRRHEELKKLCEDLDVRYLTRERNVHAKAGNLNNGLAHSTGELVTVFDADHAPARDFLLETVGYFDEDPRLFLVQTPHFFVNPDPIERNLRTFETMPSENEMFYGIIQRGLDKWNGAFFCGSAAVLRREALQDSDGFSGVSITEDCETALALHSRGWNSVYVDKPLIAGLQPATFASFIGQRSRWAQGMMQILIFRQPLFKRGLSFTQRLCYMSSTLFWLFPFPRTIFLFAPLFYLFFDLQIFVASGGEFLAYTAAYMLVNLMMQNYLYGSFRWPWISELYEYVQTVHLLPAVVSVIFNPGKPTFKVTAKDESIAEARLSEISRPFFVIFALLLVAMAFAVWRIYSEPYKADVTLVVGGWNLLNLIFAGCALGVVSERGDKSASRRITVKRRCEVQLGGSDTWVPASIDNVSVHGLLINIFDSATNIEKGATAIVKVKPHSEGVPETMPLNVVRTVRGEGFVSIGCTFSPQRAVDHRLIADLIFANSEQWSEFQRVRRKNPGLIRGTAIFLAIALFQTQRGLYYLVRARRPAPKSAKPVGAVK | failed
MNKAVETRLNKSRPGGWIPRDGAHIERWIRRIKHYVTQQPRALVPPIAELRDLVHANPALHAQAEAMFKEAWRHKHLTPLGQPEVRSFEEFLGLLNGIMTTAPEAYQDIPSHEPSGLIGFPINALLDWPMATQSGYHFFANALINQQFKKILDYWAQFLQSPASRYVLNEPVSRLDQETLVVPWLGKVAKAEMVKVANEAVGEGPNPTPGSFEQIFECEPAAEYHGFSCWDDFFTRRFRAGVRPVSAPTDDGVIVNACESAPLQVRKEVSRSDQFWLKGQPYSLDNMLDFDDLAPRFEGGTVYQAFLSALSYHRWHSPVSGTIRKVRIVNGTYYLENQFEGFADPQGADPSAPNNSQPFLTSVATRALIFIEADNPKIGLMCVVPVGMAEVSSCEITVQAGDRVQKGDPLGMFHFGGSTHCLLFRPGVRLEFDFHGQIPGLDATNMRLNTAIARVK | failed
MNKEQLQQMRQAPGFVGALDQSGGSTPKALKAYGIQPDAYQSEEEMFDLIHQMRTRMITSPAFATGKIIGVILFERTMRGKIEGMPTADFLWEKRHIVPFLKVDKGLQDEANGVQLMKPFPELGKLCEEAVGYHVFGTKMRSVIKQANEQGIRDIVEQQFQWGKEILSHGLVPILEPEVDIHCPEKAKAEEILKRELLAQLDKMTEPVMLKITIPTVDNFYKEIIEHPMMLRVVALSGGYSREQANELLSRNHGVIASFSRALVEGLSARQTDAEFNAMLEASIEDVYQASIK | not failed
MNKFKLGSDFDHLVNSLSDVELLNLFIQSCSQTTINGVPVPRFPPEEIQKQFVGASYEHALYEAYLFYRHIKEYAQNLGVPLNKESKVLDFGCGWGRIIRFLFKDASDQNLLGIDVDPAMITLCNETLGRGIYKTASPHPPVEFISDNSLDIIFAYSVFSHLSEATAENWVKEFSRVLRPGGIFIATTQARYFLDFCQQFQEHPELIQTGWHKTLSQAFPDIHRAISDYENGKFVHSPTGAGDVRNSSFYGETVIPRTYIENHYEKYLKLQDFFDDVNRLPQALFVLQKILEHHHHHH | not failed
MNKGKFALLFTFAACFAVIVFFWLLAVPPENFTADRIVMVLLISPIFAILLAFNLSRFLKQHGYSLRQVHVALEQNIADFIYEFQRLVFIHLMPIAFLGALIFYYGEFTPAIAEFLSLFALIFALSPLLFLGISFFVAMLQVYERVRKKSLLRANFFNFWIWIHLFVILLIIISKVLVQPSELPFQKAYFKALNDGVFNLLIIATMNAIFGVTGRMVAREKFPILLHLSIPLVNSFVAVKILMA | failed
MNKHFLETLLQKHQQAGTFPSTSDICRLVTRILLVLFPEQTQAKYKDVADVEIQMGVYQKELTRLLGSMQKDLPAPANELSDAFMNELSVIYDKLLLDIQAILNGDPAARSEFEVIRAYPGFYAIAFYRMAHALYKLNIPLMPRIIMEYAHSKTGIDIHPGATIGKNFYIDHGTGIVIGETAHIGDNVKVYQGVTLGALSVSKDKADTKRHPTIEDNVIIYSGATILGGKTVVGHDSIIGGNVWLTESVQPFTRVYHKAQIEVIIKNADPSLNETENNEEAIRKMKKAESENTKKNS | failed
MNKKKKKRTPKPINLNELEEKINILNFMKNDFEIVLQKENEKHSEVSIQYTNKEESSTLERERINIILKELIISCNEKKEHLNNYIKVAKDIIQKNNETIEKEKNDIDKLILQKDEQIKDVEKKIVIVQNFYKDINKGIIQLINNLEVYLRNKMNINIDIKKMNDKTIELTNVQKLNKQQECKENEFKNILYMSIDKYNEQISIIRTFIKKIKLKQEIDVIKEDNIINTNDDILREPSNNTNEQKEQSHKYDYSHDENENNNFRKYEMINIEEENDKENNVKGDNKLIINKNNVDSFDEDDSYDEDDSCDEDNSCDEDNSCGEVNSCGEDDSYDEDDSYDEDDSYDEDNSYDEDNSYDEDNRCGEKLEKEQLHNLQDDKKNYTLKKNINETLLSSLDDDESKFSSSNSDTTKSFEVYKNKEKDKDKEIYNYLYSEEETYEQKKNNESSNSDDDDNKKEHFIKKFTTLKTNKNILNEDVQFLMDKIKKIDYDYISYFEKKLKYK | failed
MNKKRIVFGLLSFFLPIFLVFGGLLFFLLLLTSTSDTSKNDCIQPSINNPTDATDTPKSIEQFVKSHKDAYLLSWKAGGFLPSASISQTMVENGFNFTNPSGTSFWQAHNMGGVKTSKKEDFPVTLATFGQDSVDISGTKPGSNVGDGTGGAYTWFKDYNAGIVGKAEFMAHQTLYTGAINNTDGLSTLSAIYSGGWATDPTYLMKLQATYNSLGKQFQWLDQEAIQKYGNAPFKKSELVLNIPGKSPITNEKYGKNSDCVVTSDTSDQVTGQNTAPSLEVPSAYKGKLTLPPIDSNDYAGNNYPFGQCTWYAYNRMAQIGKPIEWFSGDGGNGAGWANSARAKGYTVVKVKPSVGWAASMQGGIGGSAPPYGHVAVVEYVNSDGSILVSEANVINQGSGTRSWRVLDRATVEQIDFIQGKGALEHHHHHH | failed
MNKPLVVDLDGTLLRSDMLIESVLAYSKKGIRPVFHLPFWLLEGKAILKARLADRVDLSVEVLPYNTEVIDFIKQAKREQRQIVLATGTHKMFAEKIAEHLGLFDLVIATENGINLSARSKRDCLIDQFGEKGFDYIGNSHDDVVVWNAADKTYLADPEPGVKKKMDLQGGVARVFQTRQSSLRTFFRALRPHQWLKNLLLFIPLIASHQLTNITLIADALLAFVLFSMTASSGYLINDLLDLESDRYHPRKRNRPLASGELPILIGLISAPLLFLASLSASLILLSATFTISLVTYYLLSVVYSQYLKKIPLVDTIMLAGLYTVRILAGAFACSIIPTFWILAFSVFFFLSLAMLKRYAELLDLQTKGDTAKTSGRGYYPSDIQIIASLGTASGYLSILVLALYIQDARTIAMYKTHELIWLACPILLFWISRMWMLTHRGQMHDDPVLFAIKDRTSLITATLFACIFFLAILV | failed
MNKPTLGIDLDTTLNTLDREWVKRYNEIYKDKLLPSDIKGWDIENYVKPECGKKIYDILKEPHFFRNLGVQPFAETALEELTSIFNIYIVSATHYKVCEDKGNWIKEKFPFISYQNIIFCHNKGLVHLDILIDDNPLNLENFKGNKILFDAHHNKSENRFVRARDWYEAKALCESLKDFL | failed
MNKQLRNNMIVLLFAVILSLILNVAHILLPFMFGPIIASVICVRVFRLEIEWPFWLSQIGLVLLGVQIGSTFTKNVILDIKDDWLTIILITVMLLALALVIAFFFKKIAKVNTETAILSVIPGALSQMLIMAEENKRANIMVVSLTQTSRIIFVVILVPFISYFFRDNGSNGSLEKATTKVLTDAVSIPQILLLALAVFIVYIIMSKINFPTKQLLAPIIVLISWNLITGVTFTLDNYIIASAQVIYMIRIGLQIAKLLDQMKGRIAVAIAFQNVLLILLAFIMVLLISMVSNHSVNELFLGAAPGGMSQIVLVAIETGADVALISSYHIFRIFFILFLIAPLLGHLLKYIDRSHS | failed
MNKQQQSMNTNRSAQEMSETSPEYEQKYQQAIDCIENQEYGQAISILDELAGEASRDAKLRYARAVALLSNGEYRRAGTDLAFTVALDRSNLEAYRHLGFVLLTMGKEEAAIKVLEEALRRDPCFVEAWCVLADVHMDLGEHDKALDALDRAHELQPGNAEVHCKLAMYYMSRGDMRGLRAEYEVLREIEPDVAAQIAELLP | failed
MNKRKMIGAHSALALLALAVSQVHAADPTVQQGREDRAEKAAQKTLAKMTMEEKLAYIGGTGGWDVKPLTNYGVPQIHGADGGVGVRYTSEGNDQGVVYPSGPNLAATFNPRRAIDLGRALGYDTATGGYQFITGPGVNLYRMPYGGRAFEYLSGEDPFLGASLAPGVINGIQSRGVWANAKHYAANDQESNRFNLDQKMPERVLREMSLPAFESSSKNGNVAMMMCAFQKVNGDFACESEHLIAQILKKEWGYKGFVQSDYNAVVHGFEAARAGTDLDMMGYQMNSSVLKPHLDAGDLSAATIDDKVRRILKQIYLYKFDSKAPLTTHNMNSSTSNKVALNAAREGIVLLKNQGDLLPLDKQKVKKIAVVGTLAKYAPPTGFGSANVMASHYVSELSGLQQMAPNAKVEFIDGLSLDPSTSAWNTTDAAGNSVQGMKVEYFSNTNWSGDAAVTRTEQHVDLDWANDKNLPFESNTSTSDPYTTKGSTAGELNGDTSSTSIRYTGKITPTQSGEQVFKVRADGAVRLWVNGKKIIDNGDGKPLPGNSIPPTIPEFAKINLEAGQSYDVKLEYSRRAGYLSTMGGLVGVQLSSASLNAPQDLSGYDAVVVAVGNSNEYEGEGFDHSFDLPEFQNELIQNIAKVNPNTVVTMYGGTGLKMSDWIEQVPVALHAFYPGQNGGQALAEILFGKINPSGKLPISIERNIEDNPAYASFPKFDNQNTLAEMDYKDDLMLGYRGYEKKGIKPLYPFGYGLSYTTFGYSNIKVTPGVAVGNTPIKVSFDLTNTGKVGGSEVAQLYVGQQNPKVERPIKELKGYKKVFLKPGESKRVTIELNDRSLAYFDVKTNQWVVDADTFNLSLGGSSQDIRLNAKLVNSFRQELSTTTSNPLPRSALNSVLVEKPPVKTGGVFQQTVE | failed
MNKRVVKVEYIFMAFALFFGVLFAVINAPFQDPDEPIHFYRAYQISTGQMFEQKNNSGIGGYLPQNLIKTSENLSEDIKAKSNKKQDINKIKYYLNLPLNKNKVAFNDFRSATIYSDIVYIPQSIGINLAKIFRASALYMMYFGRIANLICWTIIVFFSVKLIPFKKNLMAFLALTPMNLYQAASLSADAMTNSMAFLSIALVLRYAFGEEEAKLTKRQIVTMIIAFTLLAFSKRIYFVMCILFFIIPIKKFNSKKDYIGTFVIMLGACLMSLVTVSVISKILAIKVSAGSYTPGQMEFVLSHPITYIHILLRTFHFKMSFYAISFIGVFGWLDTRLPLNLYLFYGVALVLIALFEHTLIEKNKDRIIMFIVFIINVGLIMSALYVSWTPKAANIIEGIQGRYFIPIIPLLGCFIGVKANKSRNVYSKVVLAISTFTILTYSVLQLLLRFYGIRIL | failed

— a protein production outcome set (Wang et al. 2014)
